Results as given in a protein production outcome set (Wang et al. 2014).

Assay: label from the status in PepcDB records

Sequence | protein production
MERIEAGMSVMTLKKQTYRVIAVINQGQELLVRAHEPETADIEIIPVTTVVQVTEQNSTGDAAVALDTVTVVGERYVDDIVATLTTLRVGMAVLLQRESGNQYDDNAISVWTLQHAKLGYIARYQNQPYATLMDQGQRLYGIVTVLDQQKQHLELMLWRTTAVPSPIEALQIRQRLAKPRTNLGAVPTHSLQTPLGTIVMMCNGHPIKYQQVPLSPWLTPADELHVTKRYLLTPDWSQVPPDSLITCQVTAKADVVQRWQNEHISAAVLTNASSFYVVGISAQTKTGLNDNLVDDAAQPAVIYRVGQVSAHMQAGFMVSWAPFGDPRVQPALKLALHFSSQPLVPYHPVTPSRTNATFTQQELAALLVSALPNYQGGQRLEPSVTTITVEKLRQTLGDQTYHALANYQRHVQLVAGSTEGVNETLLQALIHAVTYHELTTMHYYQPTVGMVDQVIYPIQLFSTTTKDEDDAQLVGCLALYNYETFEIQQVPLTAIARIAIIADPEHPQTTPETESPDWLRIFLHGWNDDFLEHHHHHH | not failed
MRLSRIKLPKINSLYGRIFAIFWFTMLLVLIAVLSLPHLDPRKARDIPDEHYQRIIETRDAIQNKYSKETDLGRILFRVEGNRAGKHDPRPRVFFSDYNGNVLTTDKRSNFQLRAMQNFVTSIEDYNKPKQRLYGRYMIAGPVPIVLADSELLMYVGFKWNEPPPLLLRLFDHPFQLLLAVMLVSTPLLLWLAWALSQPARRLEAAAQRVAKGEFVIDPNLEKGTAEFRQAGSSFNQMVEAVNQMISGQQRLLSDISHELRSPLTRLRMASALATRKQGDSPELVRIDTEAQRLEQMISELLELSRMQVNSHMTRETQPIESLWEEIIKDAQFEAEQMGKTLRYSEIPERHISGNPKLLMSAVENIIRNAIYYGKDEVQIDIQDKTDTLTITVDDNGDGVPDEELEAIFRPFYRVSTARDRHSGGTGLGLTITESAIRQHSGTIVASRSPLGGLRVSITLPLVKVGK | failed
MAKTSRPSKAKQQALVHQLIGKIDAQPEDYHAYYELVVLLTAGQDFEQAEALAMKALGKFDHQQPAADYLRYALGNVYYQAQTYDKALPYYQQITDDQLKQDAYLMSAQALMAQHDYQHALVWAITAQEARPQQLDANLLVADILLALGNNQQASDYYQRAYKIDSQSGRAAFNLGLTAMVLGKPYATWFERAQKLDSQYFKSHQQQLTDIEKMLAAQADNQNH | failed
MDFSDLDYSDAGDSGWTMYLGHSSSVSLHHFDYHNGETKQEHDEDSSMVSDASSGPPYYCEETVHEDHLQQNTQYWCKSKSKNKNKNKKKVHEEQGYSERFNSSFDDTASSLEKVNSGFLQQAFPVDKLALDNQGGDNQRKRRG | failed
MATVIAKPEAIAPEPKRRFTWPRGSRLGRLIVVLNVVALAIVIVGALILNELRNGLVNARIDSLSTQGELIANVIDQSATVGEPEPALDPYTASQIFQLLFIPRSQRARLFDAQGKALADSFVVADRVDWKVLPPARKPDQKDDDARTTPDRAAKAKRAQEALANEIAQAMRGRTVAGTRIAENGERVVSVSIPIQHVKAVLGVLTLEASDVDEIIAAQRKALLPFIAVAMLAILTSSVLLHRLIAVPVLRLARAADHVRLQGARAISLPDLSERKDELGDLSRSLEDMTHSLSERMDAIERFAADVAHEIKNPLTSIRSAIETLDLVTEPAARARLLAILQNDVNRLDRLVTDISNASRLDAELSREHPKALDLGRLLTEVVSLYENQWRPGDAPGSVRVSLSLADPSQPAIILGRETPIGQVFRNLIDNARSFSPADGEVRVTLSRTRGGLIAAVEDDGPGMPPENLETIFERFYTSRPKGRAFGGNSGLGLSIARQIVETHGGTVHAENRKDANGAVVGARFVVELPDARE | failed
MTLAPPLPHSNSPCSPCCMDPLLRHGFCLDMSGEIYPVIRLPCSGAAKGVHVMIRFIVKLLLCALVLLPLPAFATSGADTGPDNRLLRMGVRAHGGFTRLSMAFERDIAPVLHQLSGNRVRLVFSNTVGGRWKKLRSYRDAHVEGVVVAPRGNDLMVTVTIKGDPRGVRVSTSPGAGVVSLDVGASLAPRRSPPLAQGREGIKVGVEQLITTFDPPFKSEIPFTPTDRRVLEAMVPPAEAALIMDGEAALYEGNGSEAAEIFAGIGTNSPGRPLALYRLGEANYLLQKYGDALRFFREAERQWPVFLTRSPSTAFCYADSVARSGDLAGGRRLLGSLIAGLADKKYAPALLVRMADILARQGKDQEALAIYRNVADNFTGSKGSWQARMKLADRRLLALEPAAYSSLVKDYLEIYERGTDFGLREQGLFKAALLLSLYGDADQAFARVAEYEKKFPRGMYVSIAKGMREELLVPVYRRITRAGDNEALVKLALENRDYLGRVLAEDDFIKNLSAAFADLGRIKEEVGLYANLAIREQNRVYAPELYRRILHDAEQLGDPTLMEKAAGEFVERFPAHPWVQRFREELAAVEYNRGDFQRVVGRLSGMLASGTRPEYAESLYYLGKSLDASGNRRDAERAMLLFLAELRRREMSSPLAADASYVAATARLSRGDRKGAKEILRAAGEASPEERDPFLYKLGEIARSEGRYEEAAHYLRTVVKEGKDPDWRDMASRLLADMELTGMVRKSK | failed
MSWACRPATAQRQAGRNGGAPTVQSRVPRRASPRTHHPFVRLVATTLRPVRPYSDLLQHRLLHPMHRFVIVGLGNFGASVAEALYSHGHDVIAVDVDEQAVDDIAPHCSRAAVGDGREAATLEEIGAEAADAAVVSTGDDITASILATMALQDLGVDVVYVKVISDNHARIMRQLGATEAVFPERDSAFNLASRISEKGVVNYVRMGRNLSVQELVVPEEWRGHTLRELDVRAEYGVSVVGIHETTIDDMIVPPNPDDTLRHTDTLILAGTDEAIEKVADLASATAEEAE | failed
IEVKQLEFPAFKVEIQKWLHFHINWQNDMDYIEKTNHTFYGAYVDNDLKGSICINEQGKISFIFIDKEYRNRGIGSKLLQVARDELNLESLLISFPNNSLLEGFLKKTGFEKNSLAQYEMYVLL | failed
MPTYEELSQAVFEGDEAQVVELTRSLLSGGAEPLEVINKGLIAGMDRVGVLFKNNEMFVPEVLMSANAMNAGVEVVKQSQQAFDMPSVGKIVLGTVKGDLHDIGKNLVAMMLESGGFTVYNLGVDIEPGKFVEAVKKYQPDIVGMSALLTTTMMNMKSTIDALIAAGLRDRVKVIVGGAPLSQDFADEIGADGYAPDAASATELCRQLLE | not failed
MKIGIIGAGNIGGTLARKFVAAGHSVKLAGSKSPDSIRELAENIGAEPVAAVEAVKDVEVIVLSIPFAKIPEVAGLFSTVPAEVVVIDTSNYYPQLGTRIPEVDDGELESVWAREQLGRPIIKAFNAIIAKTLADGGKPAGTDNRIAIPVAGDSLAGKAIAQQLLDDAGFDALDAGTIADSWRQQPGMPAYCTELPLAALHSALNVAVKGDAPHLRDALMAEFFGGDIPPSHETIVARNRAVSA | failed
MTPQSDTPKVTGLKLKRKSRQLEISFDNGQQFTLSCELLRVYSPSAEVHGHGNPVLVTHKKNVNINAITPVGNYAVKLVFDDGHDTGLYSWKVLYDLASNQVDLWENYLARLRAAKASREPLIDMAVKYHT | not failed
MNPDSQHHATFNPGKGEGSPVGIAILGYGTVGSQVLRLLTENHNDFQHRAGGPLEIKGVAASSVEKHRGSLADQLGLLTDDARSLIARDDVDIVVEVIGGIDYPRELILEALHSGKSVVTANKALVAAHSEELAAAADEAGVDLYFEAAVAAAIPVLGPLRRSLAGDQIQSVAGIVNGTTNFILDAMDSTGASYDDMLAEATRLGYAEADPTADVEGHDAASKAAILASLAFHTRVTYADVYCEGISKITADDINAAKEAGFTIKLLAICERLNVDGVEKVSARVHPTLVPRNHPLASVDKSFNAIFVEAEAAGRLMFYGNGAGGNPTASAVLGDIVGAARNKVFGGRAPGESTYADLPIAPFGEVPTRFHIDMEVEDRVGVLADLAKTFSNHGISLRTVRQAEKDGHARLIVVTHTAKESELEATVEQIKNSDSVKKINSVIRLAGE | failed
MERRLCAILAADMAGYSRLMERNETDVLNRQKLYRRELIDPAIAQAGGQIVKTTGDGMLARFDTAQAALRCALEIQQAMQQREEDTPRKERIQYRIGINIGDIVLEDGDIFGDAVNVAARLEAISEPGAICVSDIVHQITQDRVSEPFTDLGLQKVKNITRPIRVWQWVPDADRDQSHDPQPSHVQH | not failed
